Test results from paper PMC314469, “Protein Interaction Networks by Proteome Peptide Scanning” (PLoS Biology, 2004).

T1: Boi1 SH3 (BOI1_YEAST), P38041
T1 chain: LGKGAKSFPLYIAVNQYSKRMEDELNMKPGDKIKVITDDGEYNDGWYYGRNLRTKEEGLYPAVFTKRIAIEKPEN

T2: Boi2 SH3 (BOI2_YEAST), P39969
T2 chain: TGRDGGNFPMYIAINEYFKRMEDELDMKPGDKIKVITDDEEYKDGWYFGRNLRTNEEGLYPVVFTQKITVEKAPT

T3: Rvs167 SH3 (RV167_YEAST), P39743
T3 chain: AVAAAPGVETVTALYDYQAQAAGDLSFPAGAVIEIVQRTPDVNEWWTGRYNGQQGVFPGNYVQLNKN

T4: Yfr024 SH3 (LSB3_YEAST), P43603
T4 chain: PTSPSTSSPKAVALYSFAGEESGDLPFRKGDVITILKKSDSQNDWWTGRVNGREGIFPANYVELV

T5: Yhr016c SH3 (YSC84_YEAST), P32793
T5 chain: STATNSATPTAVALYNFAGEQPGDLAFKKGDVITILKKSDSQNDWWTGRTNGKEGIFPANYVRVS


What was measured:
Assay in all cases: SPOT array
[1] = target: T1, Boi1 SH3 (BOI1_YEAST), P38041
[2] = target: T2, Boi2 SH3 (BOI2_YEAST), P39969
[3] = target: T3, Rvs167 SH3 (RV167_YEAST), P39743
[4] = target: T4, Yfr024 SH3 (LSB3_YEAST), P43603
[5] = target: T5, Yhr016c SH3 (YSC84_YEAST), P32793

Binder	normalised SPOT signal, Boehringer light units (BLU); mean over the file's lines of this peptide [1]	normalised SPOT signal, Boehringer light units (BLU); mean over the file's lines of this peptide [2]	normalised SPOT signal, Boehringer light units (BLU); mean over the file's lines of this peptide [3]	normalised SPOT signal, Boehringer light units (BLU); mean over the file's lines of this peptide [4]	normalised SPOT signal, Boehringer light units (BLU); mean over the file's lines of this peptide [5]
YGPPTDPRKQKQAK [YDR001C 36-49]	156	38.1	63.3	172	209
YILPKNPFRVPSEM [YGR293C 125-138]	8450	384	198	808	124
YKIPVVPPRETYFA [YGR166W 507-520]	137	26.2	385	3320	1750
YLDPFHPKRKFIGV [YNL005C 96-109]	178	58.3	57	88.7	34.3
YMQPIIPGKTESFE [YDR390C 151-164]	62.4	259	498	596	272
YPSPAQPPKSPLLN [YER114C 448-461]	92.5	36.2	18.1	526	22.5
YQYPQTPSKVDISI [YEL040W 243-256]	36.3	36.3	74.2	141	73.9
YRIPDDPRKSQNKS [YKL178C 366-379]	95.9	71.9	21.3	351	80.5
YRYPQTPMRLEIAV [YLR213C 295-308]	208	146	90.7	1060	365
YSLPMHPGRWWVHT [YHR072W 222-235]	79.5	158	78.1	712	308
YSNPQTPLRSLAGL [YDR420W 1404-1417]	80.5	104	260	2680	1600
YTLPLLPGKGGFRI [YFR048W 228-241]	107	20.3	28.3	474	96.3
YTNPRAPGKLQDSH [YIL054W 33-46]	153	26.1	64.7	478	238
YTTPKTPPRPKTIL [YKR028W 957-970]	42.6	53.6	1060	28800	27400
YWAPVSPLKSINLF [YLR305C 1424-1437]	104	231	25.1	1590	168
YYGPNSPLKLDEEN [YKL108W 203-216]	0	12.4	49.9	0	36
AAQPPLPSRNVASG [YCR088W 446-459]	98.4	62.8	59700	47300	107000
AARPTRPDKARRLG [YLR029C 39-52]	173	198	109	4960	194
AAWPLDPARERWTR [YGR031W 269-282]	549	52.7	25.5	300	134
ASLPVGPRKNGMNV [YAR061W 26-39]	158	88	170	619	167
AFVPTNPWRSSMSL [YIL162W 315-328]	294	39.8	57	840	58.7
AGHPMKPHRIRMAH [YNL330C 36-49]	138	162	279	6490	895
